Measured values taken from PMC5496861, “Yeast Cip1 is activated by environmental stress to inhibit Cdk1–G1 cyclins via Mcm1 and Msn2/4”.

T1: GST-Msn2(401-704) (Saccharomyces cerevisiae, UniProt P33748 401-704)
T1 sequence: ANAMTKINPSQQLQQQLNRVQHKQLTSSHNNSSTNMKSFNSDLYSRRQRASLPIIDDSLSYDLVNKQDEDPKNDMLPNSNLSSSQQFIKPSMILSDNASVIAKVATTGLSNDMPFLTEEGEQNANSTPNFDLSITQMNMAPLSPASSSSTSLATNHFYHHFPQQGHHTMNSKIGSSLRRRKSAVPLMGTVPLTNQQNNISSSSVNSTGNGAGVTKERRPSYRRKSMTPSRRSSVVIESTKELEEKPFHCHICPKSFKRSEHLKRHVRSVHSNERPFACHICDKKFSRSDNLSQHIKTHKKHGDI

B1: STRE I (dsDNA)
DNA 1: GGAACTCGCGCAGGGGGAAGACATA
DNA 2: TATGTCTTCCCCCTGCGCGAGTTCC
B2: STRE II (dsDNA)
DNA 1: GTATTTTCCTCCCCCTAGCTTCAAC
DNA 2: GTTGAAGCTAGGGGGAGGAAAATAC

Molecular target: T1, GST-Msn2(401-704)
Assay: EMSA; 100 ng protein, 32P-end-labeled ds oligos, 4% nondenaturing polyacrylamide gel; buffer, salt, pH and temperature not given (as previously described, ref 64)
Settings: protein: recombinant; tags: N-terminal GST (pGEX4T-1); label: 32P end label; blunt

| Binder | binding result |
| --- | --- |
| B1 | binds |
| B2 | binds |
